The record followed here is paper PMC2148126.

Like-named read-outs stand apart in the source and are kept apart here.

Assay [1] deals with Alf1p-myc (S. cerevisiae) (UniProt P53904). The assay can be described thus: co-IP.
Assay [2] has the same target. Put plainly: co-IP. The source holds these as a separate data set.

Chain of UniProt P53904 (P53904 whole entry): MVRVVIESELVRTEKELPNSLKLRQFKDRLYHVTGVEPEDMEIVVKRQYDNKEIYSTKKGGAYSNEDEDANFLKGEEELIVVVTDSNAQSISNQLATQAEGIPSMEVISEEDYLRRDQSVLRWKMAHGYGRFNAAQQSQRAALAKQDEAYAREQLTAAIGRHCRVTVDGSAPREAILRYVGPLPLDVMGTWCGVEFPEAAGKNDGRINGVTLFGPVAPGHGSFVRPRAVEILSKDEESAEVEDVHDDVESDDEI

Turning to “α-tubulin, endogenous in yeast extract (from UniProt P09733 1-447) (natural protein)”, the ratio of α-tubulin to β-tubulin precipitated in assay [1] stood at 20 fold; in assay [2] it was 2 fold.
